In the supplement of paper PMC9112550, “Optimization of the antimicrobial peptide Bac7 by deep mutational scanning” (BMC Biology, 2022):

Tested on: Escherichia coli TOP10
Assay: shrunken log2 fold change of peptide-encoding DNA abundance (4.5 h post-induction vs induction); higher = less antimicrobial activity (less host growth inhibition)
Details: time post-induction: 4.5 h; library: site-saturation at positions 5, 18, 19, 20
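Further: peptides expressed intracellularly from a pBAD plasmid library in pooled LB shake-flask culture, induced with 0.3% L-arabinose, DNA abundance read by NGS, three biological replicates, DESeq2 with apeglm shrinkage.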

Row | Sequence | shrunken log2 fold change
1 | RRIRSRPPRLPRPRPRPHDLPRP | 0.0653
2 | RRIRHRPPRLPRPRPRPVLEPRP | 0.338
3 | RRIRFRPPRLPRPRPRPGQQPRP | -0.0159
4 | RRIRDRPPRLPRPRPRPMPSPRP | 0.026
5 | RRIRLRPPRLPRPRPRPQGEPRP | 0.125
6 | RRIRGRPPRLPRPRPRPDSNPRP | -0.0604
7 | RRIRVRPPRLPRPRPRPMGSPRP | -0.000992
8 | RRIRKRPPRLPRPRPRPGQNPRP | 0.0264
9 | RRIRNRPPRLPRPRPRPFVNPRP | -0.0775
10 | RRIRQRPPRLPRPRPRPPAKPRP | 0.358
11 | RRIRCRPPRLPRPRPRPHDDPRP | -0.104
12 | RRIRKRPPRLPRPRPRPQYYPRP | -0.359
13 | RRIRLRPPRLPRPRPRPPEVPRP | -0.0157
14 | RRIRYRPPRLPRPRPRPQQCPRP | -0.145
15 | RRIRYRPPRLPRPRPRPQKQPRP | 0.00415
16 | RRIRVRPPRLPRPRPRPNVGPRP | 0.00661
17 | RRIRGRPPRLPRPRPRPNICPRP | 0.168
18 | RRIRERPPRLPRPRPRPYSRPRP | -0.195
19 | RRIRCRPPRLPRPRPRPENAPRP | 0.117
20 | RRIRYRPPRLPRPRPRPSPEPRP | -0.458
21 | RRIRRRPPRLPRPRPRPMTDPRP | 0.00399
22 | RRIRSRPPRLPRPRPRPLDRPRP | 0.218
23 | RRIRPRPPRLPRPRPRPAMVPRP | 0.844
24 | RRIRFRPPRLPRPRPRPPLMPRP | 0.154
25 | RRIRGRPPRLPRPRPRPKDTPRP | 0.61

Row | Sequence | shrunken log2 fold change
26 | RRIRDRPPRLPRPRPRPLSTPRP | 0.377
27 | RRIRNRPPRLPRPRPRPLGLPRP | -0.0325
28 | RRIRARPPRLPRPRPRPFDQPRP | 0.249
29 | RRIRDRPPRLPRPRPRPNWGPRP | 0.061
30 | RRIRMRPPRLPRPRPRPHLLPRP | 0.137
31 | RRIRHRPPRLPRPRPRPHSSPRP | -0.0394
32 | RRIRDRPPRLPRPRPRPWIQPRP | -0.653
33 | RRIRMRPPRLPRPRPRPKMGPRP | -0.00235
34 | RRIRPRPPRLPRPRPRPCSMPRP | -0.564
35 | RRIRSRPPRLPRPRPRPCCKPRP | 0.0569
36 | RRIRCRPPRLPRPRPRPRILPRP | -0.567
37 | RRIRYRPPRLPRPRPRPNRYPRP | -0.499
38 | RRIRARPPRLPRPRPRPPFQPRP | 0.415
39 | RRIRDRPPRLPRPRPRPPKLPRP | 0.0369
40 | RRIRRRPPRLPRPRPRPGINPRP | 0.016
41 | RRIRWRPPRLPRPRPRPTTDPRP | 0.449
42 | RRIRARPPRLPRPRPRPEDDPRP | 0.306
43 | RRIRMRPPRLPRPRPRPRMPPRP | 0.771
44 | RRIRYRPPRLPRPRPRPPHHPRP | -0.668
45 | RRIRQRPPRLPRPRPRPHMCPRP | -0.0238
46 | RRIRGRPPRLPRPRPRPATAPRP | 0.979
47 | RRIRSRPPRLPRPRPRPDAPPRP | 0.49
48 | RRIRKRPPRLPRPRPRPAPLPRP | 0.929
49 | RRIRLRPPRLPRPRPRPLFSPRP | -0.588
50 | RRIRHRPPRLPRPRPRPKRVPRP | -0.0983

Row | Sequence | shrunken log2 fold change
51 | RRIRQRPPRLPRPRPRPTMAPRP | 0.216
52 | RRIRHRPPRLPRPRPRPGYNPRP | -0.418
53 | RRIRSRPPRLPRPRPRPSEFPRP | -0.306
54 | RRIRTRPPRLPRPRPRPKCSPRP | -0.0669
55 | RRIRHRPPRLPRPRPRPLELPRP | -0.0293
56 | RRIRWRPPRLPRPRPRPDSMPRP | -0.0126
57 | RRIRCRPPRLPRPRPRPTAKPRP | 0.226
58 | RRIRRRPPRLPRPRPRPKQLPRP | 0.148
59 | RRIRCRPPRLPRPRPRPFYRPRP | -0.313
60 | RRIRMRPPRLPRPRPRPSRIPRP | 0.0606
61 | RRIRTRPPRLPRPRPRPTPDPRP | 0.306
62 | RRIRYRPPRLPRPRPRPTFAPRP | -0.321
63 | RRIRNRPPRLPRPRPRPPPWPRP | 0.591
64 | RRIRERPPRLPRPRPRPLIIPRP | -1
65 | RRIRYRPPRLPRPRPRPNMDPRP | -1.3
66 | RRIRLRPPRLPRPRPRPKCEPRP | 0.0288
67 | RRIRRRPPRLPRPRPRPMSMPRP | -0.17
68 | RRIRERPPRLPRPRPRPVENPRP | -0.0218
69 | RRIRDRPPRLPRPRPRPTKMPRP | 0.269
70 | RRIRSRPPRLPRPRPRPMHEPRP | -0.271
71 | RRIRRRPPRLPRPRPRPELWPRP | 0.518
72 | RRIRCRPPRLPRPRPRPTWHPRP | 0.00453
73 | RRIRHRPPRLPRPRPRPVLPPRP | -0.0347
74 | RRIRYRPPRLPRPRPRPAWKPRP | 0.0184
75 | RRIRSRPPRLPRPRPRPPDRPRP | 0.643

Row | Sequence | shrunken log2 fold change
76 | RRIRKRPPRLPRPRPRPDYEPRP | -0.164
77 | RRIRSRPPRLPRPRPRPNHRPRP | -0.426
78 | RRIRVRPPRLPRPRPRPRHKPRP | 0.13
79 | RRIRERPPRLPRPRPRPAQYPRP | 0.0972
80 | RRIRFRPPRLPRPRPRPSPYPRP | -0.481
81 | RRIRIRPPRLPRPRPRPTEDPRP | 0.267
82 | RRIRERPPRLPRPRPRPKDIPRP | 0.0209
83 | RRIRNRPPRLPRPRPRPVWMPRP | -0.0917
84 | RRIRYRPPRLPRPRPRPKMRPRP | 0.198
85 | RRIRWRPPRLPRPRPRPDEWPRP | 0.253
86 | RRIRQRPPRLPRPRPRPPLNPRP | 0.633
87 | RRIRDRPPRLPRPRPRPVSCPRP | 0.342
88 | RRIRFRPPRLPRPRPRPFDGPRP | -0.251
89 | RRIRWRPPRLPRPRPRPFGVPRP | 0.227
90 | RRIRFRPPRLPRPRPRPLCTPRP | -0.137
91 | RRIRLRPPRLPRPRPRPGREPRP | 0.231
92 | RRIRYRPPRLPRPRPRPTAYPRP | -0.537
93 | RRIRDRPPRLPRPRPRPFERPRP | -0.0141
94 | RRIRNRPPRLPRPRPRPEFIPRP | -0.304
95 | RRIRNRPPRLPRPRPRPFMNPRP | -0.195
96 | RRIRTRPPRLPRPRPRPHQDPRP | -0.245
97 | RRIRHRPPRLPRPRPRPFVAPRP | 1.81
98 | RRIRPRPPRLPRPRPRPCYTPRP | -0.531
99 | RRIRVRPPRLPRPRPRPHIAPRP | -0.235
100 | RRIRRRPPRLPRPRPRPAKRPRP | 0.863

Row | Sequence | shrunken log2 fold change
101 | RRIRKRPPRLPRPRPRPNGCPRP | -0.0163
102 | RRIRPRPPRLPRPRPRPRYSPRP | -0.354
103 | RRIRWRPPRLPRPRPRPNLHPRP | -0.269
104 | RRIRPRPPRLPRPRPRPKIVPRP | 0.026
105 | RRIRWRPPRLPRPRPRPEIAPRP | 0.355
106 | RRIRLRPPRLPRPRPRPLFTPRP | -0.232
107 | RRIRCRPPRLPRPRPRPQTVPRP | -0.275
108 | RRIRPRPPRLPRPRPRPVMFPRP | 0.885
109 | RRIRGRPPRLPRPRPRPTQCPRP | 0.222
110 | RRIRQRPPRLPRPRPRPKVSPRP | -0.073
111 | RRIRWRPPRLPRPRPRPDVDPRP | -0.0413
112 | RRIRTRPPRLPRPRPRPQDSPRP | -0.153
113 | RRIRARPPRLPRPRPRPPRPPRP | 1
114 | RRIRQRPPRLPRPRPRPTPKPRP | 1.53
115 | RRIRHRPPRLPRPRPRPIMWPRP | -0.0163
116 | RRIRVRPPRLPRPRPRPNHHPRP | -0.373
117 | RRIRLRPPRLPRPRPRPEDFPRP | 0.0854
118 | RRIRNRPPRLPRPRPRPVIKPRP | -0.375
119 | RRIRARPPRLPRPRPRPLVRPRP | 0.264
120 | RRIRRRPPRLPRPRPRPLDQPRP | -0.0226
121 | RRIRLRPPRLPRPRPRPYSYPRP | -0.977
122 | RRIRWRPPRLPRPRPRPNVFPRP | -0.304
123 | RRIRRRPPRLPRPRPRPPHEPRP | 0.449
124 | RRIRRRPPRLPRPRPRPVLYPRP | -0.142
125 | RRIRTRPPRLPRPRPRPCECPRP | 0.0538
